Data published in US20170355774A1.

Columns and labels:
[1] = target: human GITR (amino acids M1-V241, NCBI Accession #NP_004186.1) expressed on cells (human) (UniProt Q9Y5U5); experiment: cell-based or functional assay
hGITR.hFc (human) = experiment: SPR 37C, mAb capture
[2] = target: mfGITR.mmh (Macaca fasicularis); experiment: SPR 37C, mAb capture
hGITR.mmh (human) = experiment: SPR 37C, mAb capture
hGITR.mmh (human), sequence (chain, as listed by the source limits assumed): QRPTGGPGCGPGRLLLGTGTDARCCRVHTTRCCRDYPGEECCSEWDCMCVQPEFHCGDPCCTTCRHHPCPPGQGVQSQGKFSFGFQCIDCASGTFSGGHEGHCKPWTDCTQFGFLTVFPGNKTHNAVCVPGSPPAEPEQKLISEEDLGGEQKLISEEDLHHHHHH

mfGITR.mmh (Macaca fasicularis), sequence (chain, as listed by the source limits assumed): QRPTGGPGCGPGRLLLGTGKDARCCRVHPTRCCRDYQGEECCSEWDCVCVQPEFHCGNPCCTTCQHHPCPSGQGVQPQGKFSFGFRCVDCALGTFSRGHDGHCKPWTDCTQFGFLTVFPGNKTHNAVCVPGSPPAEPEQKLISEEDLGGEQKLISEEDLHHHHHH
hGITR.hFc (human), sequence (chain, as listed by the source limits assumed): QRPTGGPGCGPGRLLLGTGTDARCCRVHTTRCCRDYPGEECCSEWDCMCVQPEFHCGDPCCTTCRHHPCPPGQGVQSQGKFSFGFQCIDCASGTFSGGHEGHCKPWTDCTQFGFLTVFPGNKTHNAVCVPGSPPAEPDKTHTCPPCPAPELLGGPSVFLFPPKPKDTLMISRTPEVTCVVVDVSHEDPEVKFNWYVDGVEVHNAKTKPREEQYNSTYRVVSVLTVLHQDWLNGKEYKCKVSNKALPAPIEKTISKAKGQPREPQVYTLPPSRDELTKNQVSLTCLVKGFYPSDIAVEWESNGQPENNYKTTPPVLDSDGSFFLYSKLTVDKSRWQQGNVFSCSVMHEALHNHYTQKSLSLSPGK
human GITR (amino acids M1-V241, NCBI Accession #NP_004186.1) expressed on cells (human), sequence (Q9Y5U5 26-241): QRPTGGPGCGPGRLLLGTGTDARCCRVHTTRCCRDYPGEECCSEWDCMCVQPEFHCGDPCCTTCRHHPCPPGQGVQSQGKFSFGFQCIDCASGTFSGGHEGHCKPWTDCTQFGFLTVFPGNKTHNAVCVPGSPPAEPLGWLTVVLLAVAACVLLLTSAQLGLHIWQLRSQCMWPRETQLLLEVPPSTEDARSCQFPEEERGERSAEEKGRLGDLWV

B1: Anti-GITR Control Ab I-mIgG1 (antibody, from another filing, V domains shown)
VH: QVTLKESGPGILKPSQTLSLTCSFSGFSLSTSGMGVGWIRQPSGKGLEWLAHIWWDDDKYYNPSLKSQLTISKDTSRNQVFLKITSVDTADAATYYCARTRRYFPFAYWGQGTLVTVSS
VL: DIVMTQSQKFMSTSVGDRVSVTCKASQNVGTNVAWYQQKPGQSPKALIYSASYRYSGVPDRFTGSGSGTDFTLTINNVHSEDLAEYFCQQYNTDPLTFGAGTKLEIK
% Activation, NF-kB-Luc, non-anchored [1]: 25%
% Blocking, NF-kB-Luc, FcgR anchored [1]: 60%
% Blocking, NF-kB-Luc, non-anchored [1]: 54%
EC50, T-cell proliferation, FcgR anchored, donor 1 [1]: 37.2 nM
EC50, T-cell proliferation, FcgR anchored, donor 3 [1]: 42.9 nM
EC50, T-cell proliferation, FcgR anchored, donor 4 [1]: 3.5 nM
EC50, T-cell proliferation, FcgR anchored, donor 5 [1]: 52.7 nM
EC50, T-cell proliferation, FcgR anchored, mean [1]: 34.1 nM
EC50, hGITR activation, NF-kB-Luc, FcgR anchored [1]: 0.1 nM
EC50, hGITR activation, NF-kB-Luc, non-anchored [1]: 1.02 nM
Fold Activation over basal signal, NF-kB-Luc, FcgR anchored [1]: 6 fold
IC50, blocking of hGITRL stimulation, NF-kB-Luc, FcgR anchored [1]: 0.2 nM
IC50, blocking of hGITRL stimulation, NF-kB-Luc, non-anchored [1]: 0.1 nM
fold activation, T-cell proliferation, 22 nM, non-anchored, donor 1 [1]: 0.7 fold
fold activation, T-cell proliferation, 22 nM, non-anchored, donor 2 [1]: 0.8 fold
fold activation, T-cell proliferation, 22 nM, non-anchored, donor 3 [1]: 1 fold
fold activation, T-cell proliferation, 22 nM, non-anchored, donor 4 [1]: 1 fold
fold activation, T-cell proliferation, 22 nM, non-anchored, mean [1]: 0.9 fold
fold activation, T-cell proliferation, 33 nM, FcgR anchored, donor 1 [1]: 2.8 fold
fold activation, T-cell proliferation, 33 nM, FcgR anchored, donor 2 [1]: 2.8 fold
fold activation, T-cell proliferation, 33 nM, FcgR anchored, donor 3 [1]: 1.4 fold
fold activation, T-cell proliferation, 33 nM, FcgR anchored, donor 4 [1]: 1.1 fold
fold activation, T-cell proliferation, 33 nM, FcgR anchored, donor 5 [1]: 1.7 fold
fold activation, T-cell proliferation, 33 nM, FcgR anchored, mean [1]: 2 fold
fold activation, T-cell proliferation, plate-bound Ab 10.6 nM, donor 1 [1]: 6 fold
fold activation, T-cell proliferation, plate-bound Ab 10.6 nM, donor 2 [1]: 23 fold
fold activation, T-cell proliferation, plate-bound Ab 10.6 nM, donor 3 [1]: 23 fold
fold activation, T-cell proliferation, plate-bound Ab 10.6 nM, donor 4 [1]: 40 fold
fold activation, T-cell proliferation, plate-bound Ab 10.6 nM, donor 5 [1]: 23 fold
fold activation, T-cell proliferation, plate-bound Ab 10.6 nM, donor 6 [1]: 66 fold
fold activation, T-cell proliferation, plate-bound Ab 10.6 nM, donor 7 [1]: 25 fold
fold activation, T-cell proliferation, plate-bound Ab 10.6 nM, donor 8 [1]: 11 fold
fold activation, T-cell proliferation, plate-bound Ab 10.6 nM, mean [1]: 27 fold
Kd (hGITR.hFc (human)): 20.4 nM
koff (hGITR.hFc (human)): 0.0078 s⁻¹
kon (hGITR.hFc (human)): 382000 M⁻¹ s⁻¹
t½ (hGITR.hFc (human)): 90 s
Kd [2]: 213 nM
koff [2]: 0.0464 s⁻¹
kon [2]: 218000 M⁻¹ s⁻¹
t½ [2]: 12 s
Kd (hGITR.mmh (human)): 122 nM
koff (hGITR.mmh (human)): 0.0263 s⁻¹
kon (hGITR.mmh (human)): 216000 M⁻¹ s⁻¹
t½ (hGITR.mmh (human)): 24 s

B2: Anti-GITR Control Ab I-mIgG2a (antibody, from another filing, V domains shown)
VH: B1 VH
VL: B1 VL
% Blocking, NF-kB-Luc, FcgR anchored [1]: 74%
EC50, hGITR activation, NF-kB-Luc, FcgR anchored [1]: 0.2 nM
Fold Activation over basal signal, NF-kB-Luc, FcgR anchored [1]: 5 fold
IC50, blocking of hGITRL stimulation, NF-kB-Luc, FcgR anchored [1]: 0.01 nM
fold activation, T-cell proliferation, 33 nM, FcgR anchored, donor 1 [1]: 1.1 fold
fold activation, T-cell proliferation, 33 nM, FcgR anchored, donor 2 [1]: 0.1 fold
fold activation, T-cell proliferation, 33 nM, FcgR anchored, donor 3 [1]: 1 fold
fold activation, T-cell proliferation, 33 nM, FcgR anchored, donor 4 [1]: 1 fold
fold activation, T-cell proliferation, 33 nM, FcgR anchored, donor 5 [1]: 1.2 fold
fold activation, T-cell proliferation, 33 nM, FcgR anchored, mean [1]: 1.3 fold
